Like-named read-outs stand apart in the source and are kept apart here.

Common to all, as to test: EMSA
Data set [1] concerns the target T1, DNMT1 (BAH1-BAH2-MTase fragment) (human, UniProt P26358 728-1600).
Data set [2] concerns the target T1, DNMT1 (BAH1-BAH2-MTase fragment). The source holds these as a separate data set.
For data set [3] the target is unchanged. This is another data set of the same source.
For data set [4] the target is unchanged. This is another data set of the same source.
For data set [5] the target is unchanged. The source holds these as a separate data set.
Data set [6] concerns the target DNMT3A;DNMT3L (human;human, UniProt Q9Y6K1;Q9UJW3 628-912;178-386, |).
The target in data set [7] is DNMT3B;DNMT3L (human;human, UniProt Q9UBC3;Q9UJW3 562-853;178-386, |).
Chain of DNMT3B;DNMT3L (Q9UJW3 178-386, chain 2 of 2, other chains not shown): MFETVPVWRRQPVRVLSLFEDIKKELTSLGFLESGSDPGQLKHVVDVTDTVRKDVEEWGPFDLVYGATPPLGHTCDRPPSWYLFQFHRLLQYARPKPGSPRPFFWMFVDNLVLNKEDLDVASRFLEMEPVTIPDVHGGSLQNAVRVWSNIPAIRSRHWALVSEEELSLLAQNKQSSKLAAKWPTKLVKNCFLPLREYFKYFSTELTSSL

T1 sequence (P26358 728-1600): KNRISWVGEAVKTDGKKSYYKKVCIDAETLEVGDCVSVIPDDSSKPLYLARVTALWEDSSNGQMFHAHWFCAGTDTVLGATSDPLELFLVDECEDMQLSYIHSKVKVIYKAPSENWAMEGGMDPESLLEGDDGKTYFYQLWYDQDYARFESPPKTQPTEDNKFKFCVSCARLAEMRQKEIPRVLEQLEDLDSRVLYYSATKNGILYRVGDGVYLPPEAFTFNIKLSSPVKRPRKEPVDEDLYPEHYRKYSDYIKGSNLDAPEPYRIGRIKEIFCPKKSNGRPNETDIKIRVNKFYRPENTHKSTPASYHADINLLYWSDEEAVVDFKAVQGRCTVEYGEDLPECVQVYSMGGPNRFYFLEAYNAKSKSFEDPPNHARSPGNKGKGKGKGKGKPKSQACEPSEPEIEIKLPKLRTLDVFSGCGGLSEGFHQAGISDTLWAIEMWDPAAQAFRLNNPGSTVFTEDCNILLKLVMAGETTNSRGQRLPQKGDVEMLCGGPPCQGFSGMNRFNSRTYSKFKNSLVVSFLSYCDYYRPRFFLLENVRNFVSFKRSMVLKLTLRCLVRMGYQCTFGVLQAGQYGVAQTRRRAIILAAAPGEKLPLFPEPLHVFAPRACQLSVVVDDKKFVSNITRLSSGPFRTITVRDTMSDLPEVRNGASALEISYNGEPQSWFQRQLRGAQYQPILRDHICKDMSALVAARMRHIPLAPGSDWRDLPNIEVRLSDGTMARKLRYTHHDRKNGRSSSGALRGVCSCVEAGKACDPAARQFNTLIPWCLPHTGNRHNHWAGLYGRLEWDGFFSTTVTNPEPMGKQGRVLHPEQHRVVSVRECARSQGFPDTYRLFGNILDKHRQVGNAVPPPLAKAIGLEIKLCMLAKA
Chain of DNMT3A;DNMT3L (Q9Y6K1 628-912, chain 1 of 2): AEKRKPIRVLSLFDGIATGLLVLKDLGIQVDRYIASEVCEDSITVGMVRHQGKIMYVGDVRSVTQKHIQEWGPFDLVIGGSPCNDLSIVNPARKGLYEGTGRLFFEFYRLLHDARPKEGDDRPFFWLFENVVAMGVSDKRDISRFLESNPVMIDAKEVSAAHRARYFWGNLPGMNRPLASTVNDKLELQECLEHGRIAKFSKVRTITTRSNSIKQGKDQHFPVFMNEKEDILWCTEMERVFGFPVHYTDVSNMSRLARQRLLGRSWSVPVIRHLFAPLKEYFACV
Chain of DNMT3A;DNMT3L (Q9UJW3 178-386, chain 2 of 2): as the sequence (Q9UJW3 178-386, chain 2 of 2, other chains not shown) above

B1: hemiDNA 36-mer (dsDNA)
DNA 1: GACGACGACGACGACGACGACGACGACGACGACGAC
DNA 2: GTCGTCGTCGTCGTCGTCGTCGTCGTCGTCGTCGTC
modifications: 5-methylcytosine at every C of strand 2
B1: the binding signal in data set [1] was approximately 4 fold weaker than Apt. #9.

CCCGGGACGCGGGUCCGGGACAG (ssRNA) [R2 RNA]: the binding signal in data set [2] was ~4 fold less binding than Apt. #9.

With CCCATGCGTAGGGTCTGATGCCTATGCGTG (ssDNA) [Apt. #10], in data set [3], the binding result is recorded as “binds”. CAGATGTGCGAGTGACATCTC (ssDNA) [Modified ssDNA #7]: in data set [4], the binding result was “no binding”. Consider TGCGAGTGACATCTCAACGG (ssDNA) [non-binding ssDNA #12], for which the binding result in data set [3] is on record as “no binding”. As to ATAGAAGTGGGGGTGAGTCCACTTCTATG (ssDNA) [Steml], the binding result in data set [5] is reported as “binds”. CGTAGATGTGCTGACATCTACGG (ssDNA) [Modified ssDNA #6]: the binding result in data set [3] is “no binding”. Still for that read-out and setting: with CGTAGATGTGCGAGTGACATCTACGG (ssDNA) [Apt. #8] the entry was “binds”. Same read-out and setting: with CGTCAGATGTGCGAGTGACATCTCAACGG (ssDNA) [Modified ssDNA #5] the entry was “no binding”; with AGATGTGCGAGTGACATCTCAACGGCCTAT (ssDNA) [Apt. #11], “binds”.

Usually Kd stands for the concentration at which binding is half-saturated. Read a high Kd as weaker binding. In data set [3], AGAAGTGGGGGTGAGTCCACTTCTG (ssDNA) [Apt. #9] yielded a Kd of 0.77 ± 0.11 µM. Besides, the binding result in data set [6] and in data set [7] was “no binding” in each case. With AGATCTGGGGGTGAGTCCACTTCTG (ssDNA) [Bulge2], the binding result in data set [5] was “binds”.

For the origin of these results see PMC7145629.
